Assay results from US20200223938A1 (published 2020).
Positions count from the first letter of the chain named. Blank lines part the entries; values can stand above or below the binder they belong to.

Target: monomeric FcRn (Sinobiological inc., CT009-H08H) (human;, UniProt P55899 24-297; P61769 21-119)
Assay: Biacore SPR; pH 6.0

- Kd: 6.99 nM
B1: EFc88 (protein)
chain: DKTHTCPPCSAPELLGGPSVFLFPPKPKDTLMISRTPEVTCVVVDVSHEDPEVKFNWYVDGVEVHNAKTKPREELYNSTYRVVSVLTVLHQDWLNGKEYMCKVSNKALPAPIEKTISKAKGQPREPQVYTLPPSREELTKNQVSLTCLVKGFYPSDIAVEWESNGQPENNYKTTPPVLDSDGSFILYSKLTVDKSRWQQGNVFSCSVLHEALHNHYTQKSLSLSPGK

- Kd: 6.68 nM
B2: trastuzumab Fc variant EFc82 (antibody)
Fc: B1 chain with S10Q, F23Y, K26E, L75Q, M100K, E136D, N141S, N164I, I185F
